Data: publication PMC3247280, “Oligomerization of ZFYVE27 (Protrudin) Is Necessary to Promote Neurite Extension” (PLoS ONE, 2011)

B1: ZFYVE27^WT (full-length ZFYVE27, E2- or c-Myc-tagged, in mammalian cells) (natural protein, human, UniProt Q5T4F4-2 1-404, looked up)
chain: MQTSEREGSGPELSPSVMPEAPLESPPFPTKSPAFDLFNLVLSYKRLEIYLEPLKDAGDGVRYLLRWQMPLCSLLTCLGLNVLFLTLNEGAWYSVGALMISVPALLGYLQEVCRARLPDSELMRRKYHSVRQEDLQRGRLSRPEAVAEVKSFLIQLEAFLSRLCCTCEAAYRVLHWENPVVSSQFYGALLGTVCMLYLLPLCWVLTLLNSTLFLGNVEFFRVVSEYRASLQQRMNPKQEEHAFESPPPPDVGGKDGLMDSTPALTPTEDLTPGSVEEAEEAEPDEEFKDAIEEDDEGAPCPAEDELALQDNGFLSKNEVLRSKVSRLTERLRKRYPTNNFGNCTGCSATFSVLKKRRSCSNCGNSFCSRCCSFKVPKSSMGATAPEAQRETVFVCASCNQTLSK
notes: numbers count on: this 404-residue isoform; Each copy carries only one tag: E2 (vector pQM-N-Tag A) or six c-Myc tags (vector pCS2-myc); The two differently tagged copies are written as one molecule because the protein is tested against itself; With the E2-tagged deletion constructs the c-Myc copy was used; with GFP-Spastin and in the sucrose gradient the E2 copy; also called E2-ZFYVE27^WT; …
B2: endogenous ZFYVE27 of NSC34 cells (natural protein, mouse (endogenous in NSC34), UniProt Q3TXX3 1-415, looked up)
chain: MQTSDRDLSGPEASPSGMPEVLSECPPAPTKSAAFDLFNLVLSYKRLEIYLEPLKDAGDGVRYLLRWQMPLCSLLTCLGLNILFLTLNEGAWYSMGALMISVPALLGYLQEVCRGQLPESELMRRKYHSIRQEDLQRVRLSRVHLSRPEAVAEVKSFLIQLEAFLARLCYTCESAYRVLHWENPVVSSQFYGALLGMVCMLYLLPLCWVLALLNSTLFLGNGDFFRVVCEYRACLQRRMNPRQEECACESSALQGAGGRGLLDSSPAPTPTEDLTPGSVEEAEEAEPDEEFKDAIEETHLVVLEDEEGTPCPAEDELTLQDNGFLSKNEVLRSKVSRLTERLRKRYPTNNFGNCAGCAATFSVLKKRRSCSNCGNSFCSRCCSFKVPRSSMGATAPEAQRETVCVCASCNQTLSK
notes: ZFYVE27 expressed endogenously in NSC34 (a mouse embryonic spinal cord-neuroblastoma hybrid cell line); also called mo-ZFYVE27; di-ZFYVE27

How the values were obtained:
[1] = target: the molecule itself; test: SDS-PAGE and immunoblot (SDS-resistant dimer); lysates of NIH-3T3 overexpressing E2-ZFYVE27^WT or c-Myc-ZFYVE27^WT, immunoblot with ZFYVE27 antibody
[2] = target: the molecule itself; test: SDS-PAGE and immunoblot (SDS-resistant dimer); NSC34 cell extract, cytosolic (S-100) and membrane (P-100) fractions, immunoblot with ZFYVE27 antibody

| Protein | stoichiometry N [1] | stoichiometry N [2] |
| --- | --- | --- |
| B1 | 2 |  |
| B2 |  | 2 |
